These results are taken from patent US8828941 (KUNOVUS, dated 2014).

This series concerns the molecule itself. As to the kind of experiment: non-reducing PAGE of protein from CHO cells. From the text: Concentrated supernatants from one well of a 6-well plate were separated using polyaclylamide gel electrophoresis (PAGE) under […] conditions. Proteins were transferred to nitrocellulose membranes and detected with antisera specific for GDF-6 or for the FLAG tag, secondary antibodies and detection system.

B1: active domain of GDF-6 fused to a FLAG tag (SEQ ID NO: 25), expressed in CHO cells (ligand)
chain: MDYKDDDDKENLYFQGTAFASRHGKRHGKKSRLRCSKKPLHVNFKELGWDDWIIAPLEYEAYHCEGVCDFPLRSHLEPTNHAIIQTLMNSMDPGSTPPSCCVPTKLTPISILYIDAGNNVVYKQYEDMVVESCGCR
notes: Non-reducing PAGE indicates a homodimer; also called active fragment of GDF-6; active fragment
Turning to B1, the binding result is listed as “binds”.
